Source: the supplement of paper PMC10126150
± gives the standard deviation of the averaged measurements.

Each sequence was assayed on ATP (assay: switch fluorescence ratio, 500 uM ATP over buffer (Cy3 cluster intensity, sum of 5 cycles each) (fold (ratio)); higher = stronger signal-on switching upon ATP binding; sequences stand for … in TCGTCGGCAGCGTCAGATGTGTATAAGAGACAGTTTTTTTTTTTTTTTTTTTTTTTTT…TC). Details: aptamer strand: ATP DNA aptamer (quencher-CACCTGGGGGAGTATTGCGGAGGAAGG + anchor), 100 nM annealed; ATP concentration: 500 uM.
Summary of the method: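 Exposure to 500 uM ATP lasted 15 min at 22 °C before imaging, and a selection-buffer image was taken beforehand, for Cy3-labelled switching-strand clusters on a modified Illumina MiSeq flow-cell annealed to 100 nM quencher-labelled ATP aptamer. Five buffer/ATP cycles were run with NaOH stripping and re-annealing between them. The fluorescence ratio per cluster is summed target-cycle over summed buffer-cycle Cy3 intensity, averaged per switch-domain sequence. Clusters outside 100-1000 RFU were excluded.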

AAAGAGTTGC and AAAGAGTTTT are within error of each other in switch fluorescence ratio: 0.9785 ± 0.0069 for the first, 1.02 ± 0.071 for the second.

AAAGATAATT and AAAGATATAA are within error of each other in switch fluorescence ratio: 0.982 ± 0.018 for the first, 1.03 ± 0.036 for the second.

AAAGATGATG and AAAGATGCGG are within error of each other in switch fluorescence ratio: 1.0025 ± 0.00068 for the first, 1.01 ± 0.066 for the second.

AAAGATGGCT and AAAGATTAAA are within error of each other in switch fluorescence ratio: 0.98 ± 0.025 for the first, 0.9918 ± 0.0056 for the second.

AAAGATTCGA and AAAGATTTGT are within error of each other in switch fluorescence ratio: 0.996 ± 0.01 for the first, 0.978 ± 0.016 for the second.

AAAGCAATGG and AAAGCAATTG are within error of each other in switch fluorescence ratio: 2.51 ± 2 for the first, 1.077 ± 0.0065 for the second.

Compared with AAAGCAGGGA, AAAGCATAAC is higher in switch fluorescence ratio: 1.04 ± 0.043 for the first, 1.91 ± 0.14 for the second.

Going from AAAGCGGGGG to AAAGCGTGGA, the switch fluorescence ratio falls from 1.04 ± 0.016 to 1 ± 0.011.

AAAGCGTGTG and AAAGCTATTC are within error of each other in switch fluorescence ratio: 1.01 ± 0.043 for the first, 1.12 ± 0.16 for the second.

First: AAAGCTCACC
Second: AAAGGAAGGT
The switch fluorescence ratio of the first is higher: 1.12 ± 0.026 for the first, 1.01 ± 0.024 for the second.

AAAGGAGGAA and AAAGGAGGGC are within error of each other in switch fluorescence ratio: 0.989 ± 0.019 for the first, 0.968 ± 0.067 for the second.

AAAGGAGTTT and AAAGGATGAG are within error of each other in switch fluorescence ratio: 1.01 ± 0.072 for the first, 0.979 ± 0.019 for the second.

First: AAAGGATGAT
Second: AAAGGCATGT
The switch fluorescence ratio of the first is lower: 0.9978 ± 0.0031 for the first, 1.04 ± 0.017 for the second.

AAAGGCGTAT and AAAGGCGTCA are the same in switch fluorescence ratio: 1.008 ± 0.0036 for the first, 1.01 ± 0.016 for the second.

AAAGGCGTTA and AAAGGGAAAT are within error of each other in switch fluorescence ratio: 0.9971 ± 0.0062 for the first, 0.975 ± 0.037 for the second.

AAAGGGAACC and AAAGGGATAT are within error of each other in switch fluorescence ratio: 1.017 ± 0.0037 for the first, 0.975 ± 0.049 for the second.

Compared with AAAGGGCCTT, AAAGGGCGAC is lower in switch fluorescence ratio: 1.003 ± 0.0024 for the first, 0.973 ± 0.014 for the second.

AAAGGGGATG and AAAGGGGGAT are within error of each other in switch fluorescence ratio: 1.01 ± 0.016 for the first, 1 ± 0.023 for the second.

Going from AAAGGGGTAA to AAAGGGGTAC, the switch fluorescence ratio rises from 0.982 ± 0.02 to 1.04 ± 0.016.

Compared with AAAGGGGTGC, AAAGGGTAAT is lower in switch fluorescence ratio: 1.05 ± 0.048 for the first, 0.984 ± 0.018 for the second.

Going from AAAGGGTAGT to AAAGGTAATC, the switch fluorescence ratio rises from 0.9813 ± 0.0014 to 1.01 ± 0.023.

AAAGGTATTC and AAAGGTGATA are within error of each other in switch fluorescence ratio: 1 ± 0.02 for the first, 1.03 ± 0.037 for the second.

AAAGGTGGCA and AAAGGTGGGG are the same in switch fluorescence ratio: 1 ± 0.017 for the first, 1.001 ± 0.01 for the second.

AAAGGTGTGT and AAAGGTTAAA are within error of each other in switch fluorescence ratio: 1.04 ± 0.073 for the first, 0.99 ± 0.018 for the second.

AAAGGTTGCT and AAAGGTTGGG are within error of each other in switch fluorescence ratio: 1.007 ± 0.01 for the first, 0.992 ± 0.044 for the second.

AAAGGTTTTT and AAAGTAAGCC are within error of each other in switch fluorescence ratio: 0.988 ± 0.016 for the first, 0.984 ± 0.018 for the second.

First: AAAGTACCCG
Second: AAAGTAGGTT
The switch fluorescence ratio of the first is higher: 1.07 ± 0.04 for the first, 0.991 ± 0.023 for the second.

AAAGTATATA and AAAGTCTATT are within error of each other in switch fluorescence ratio: 1.02 ± 0.04 for the first, 0.99 ± 0.02 for the second.

AAAGTGCCCG and AAAGTGGCCC are within error of each other in switch fluorescence ratio: 0.979 ± 0.022 for the first, 0.997 ± 0.018 for the second.

First: AAAGTGGGCC
Second: AAAGTGGTCG
The switch fluorescence ratio of the first is lower: 0.9593 ± 0.0049 for the first, 1.1 ± 0.039 for the second.

Compared with AAAGTGGTCT, AAAGTGTAAA is higher in switch fluorescence ratio: 1 ± 0.015 for the first, 1.08 ± 0.058 for the second.

AAAGTGTCGT and AAAGTGTGCG are within error of each other in switch fluorescence ratio: 0.973 ± 0.028 for the first, 1.01 ± 0.023 for the second.

AAAGTTAGTT and AAAGTTATAT are within error of each other in switch fluorescence ratio: 1.03 ± 0.019 for the first, 1.022 ± 0.0028 for the second.

AAAGTTTGTT and AAAGTTTTAA are the same in switch fluorescence ratio: 1.025 ± 0.007 for the first, 1.02 ± 0.018 for the second.

AAATAAACA and AAATAACGGT are within error of each other in switch fluorescence ratio: 0.999 ± 0.023 for the first, 1.16 ± 0.21 for the second.

AAATAACTAC and AAATAATTGG are within error of each other in switch fluorescence ratio: 1.08 ± 0.015 for the first, 1.09 ± 0.013 for the second.

First: AAATAATTTA
Second: AAATACCGCA
The switch fluorescence ratio of the first is lower: 0.955 ± 0.038 for the first, 1.48 ± 0.17 for the second.

AAATACGCTC and AAATACTTGC are within error of each other in switch fluorescence ratio: 1.25 ± 0.2 for the first, 1.14 ± 0.074 for the second.

AAATAGACCG and AAATAGGTGG are within error of each other in switch fluorescence ratio: 1 ± 0.0091 for the first, 0.996 ± 0.024 for the second.

AAATAGTCTG and AAATAGTGTG are within error of each other in switch fluorescence ratio: 0.972 ± 0.017 for the first, 1 ± 0.033 for the second.

AAATATAGTG and AAATATATAT are within error of each other in switch fluorescence ratio: 0.991 ± 0.025 for the first, 0.994 ± 0.044 for the second.

Going from AAATATATTC to AAATATGGGC, the switch fluorescence ratio falls from 1.02 ± 0.012 to 0.961 ± 0.022.

AAATATTATA and AAATATTGAG are within error of each other in switch fluorescence ratio: 1.02 ± 0.031 for the first, 1 ± 0.015 for the second.

AAATATTGGT and AAATATTTCC are within error of each other in switch fluorescence ratio: 1.01 ± 0.03 for the first, 1.09 ± 0.06 for the second.

First: AAATCAAACG
Second: AAATCAACCC
The switch fluorescence ratio of the first is higher: 1.05 ± 0.018 for the first, 0.9885 ± 0.0083 for the second.

Going from AAATCAGGTT to AAATCATTAT, the switch fluorescence ratio rises from 0.972 ± 0.016 to 1.01 ± 0.019.

AAATCATTGG and AAATCCAATA are the same in switch fluorescence ratio: 1.01 ± 0.026 for the first, 1.0106 ± 0.0007 for the second.

First: AAATCCCGCT
Second: AAATCCCGTA
The switch fluorescence ratio of the first is higher: 1.0834 ± 0.00016 for the first, 1.01 ± 0.052 for the second.

AAATCCGCTT and AAATCGCGGA are within error of each other in switch fluorescence ratio: 1.27 ± 0.26 for the first, 1.05 ± 0.011 for the second.

AAATCTTAAT and AAATGAAAGT are within error of each other in switch fluorescence ratio: 1.002 ± 0.007 for the first, 0.995 ± 0.015 for the second.
